The target of the assay is T1, Non-POU domain-containing octamer-binding protein (NONO), endogenous, from HeLa nuclear extract (human (endogenous in HeLa), UniProt Q15233 1-471).
T1 sequence: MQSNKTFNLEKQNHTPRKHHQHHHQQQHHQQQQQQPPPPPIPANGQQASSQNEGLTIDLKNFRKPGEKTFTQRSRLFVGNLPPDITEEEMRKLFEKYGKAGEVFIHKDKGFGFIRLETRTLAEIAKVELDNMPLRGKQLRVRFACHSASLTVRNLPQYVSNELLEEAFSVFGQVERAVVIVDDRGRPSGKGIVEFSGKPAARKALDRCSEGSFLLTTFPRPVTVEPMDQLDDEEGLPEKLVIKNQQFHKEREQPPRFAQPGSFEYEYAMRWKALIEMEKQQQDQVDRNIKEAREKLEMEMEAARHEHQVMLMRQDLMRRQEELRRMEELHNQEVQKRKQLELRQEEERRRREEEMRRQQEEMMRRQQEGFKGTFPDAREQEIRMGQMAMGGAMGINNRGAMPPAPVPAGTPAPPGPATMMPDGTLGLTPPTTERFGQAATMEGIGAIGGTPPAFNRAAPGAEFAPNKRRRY
The assay is described as follows: affinity purification with mass spectrometry.

The term stoichiometry N denotes the number of molecules, sites or subunits per partner or assembly.

B1: Splicing factor, proline- and glutamine-rich (SFPQ), endogenous, from HeLa nuclear extract (natural protein)
chain: MSRDRFRSRGGGGGGFHRRGGGGGRGGLHDFRSPPPGMGLNQNRGPMGPGPGQSGPKPPIPPPPPHQQQQQPPPQQPPPQQPPPHQPPPHPQPHQQQQPPPPPQDSSKPVVAQGPGPAPGVGSAPPASSSAPPATPPTSGAPPGSGPGPTPTPPPAVTSAPPGAPPPTPPSSGVPTTPPQAGGPPPPPAAVPGPGPGPKQGPGPGGPKGGKMPGGPKPGGGPGLSTPGGHPKPPHRGGGEPRGGRQHHPPYHQQHHQGPPPGGPGGRSEEKISDSEGFKANLSLLRRPGEKTYTQRCRLFVGNLPADITEDEFKRLFAKYGEPGEVFINKGKGFGFIKLESRALAEIAKAELDDTPMRGRQLRVRFATHAAALSVRNLSPYVSNELLEEAFSQFGPIERAVVIVDDRGRSTGKGIVEFASKPAARKAFERCSEGVFLLTTTPRPVIVEPLEQLDDEDGLPEKLAQKNPMYQKERETPPRFAQHGTFEYEYSQRWKSLDEMEKQQREQVEKNMKDAKDKLESEMEDAYHEHQANLLRQDLMRRQEELRRMEELHNQEMQKRKEMQLRQEEERRRREEEMMIRQREMEEQMRRQREESYSRMGYMDPRERDMRMGGGGAMNMGDPYGSGGQKFPPLGGGGGIGYEANPGVPPATMSGSMMGSDMRTERFGQGGAGPVGGQGPRGMGPGTPAGYGRGREEYEGPNKKPRF
B1: the “stoichiometry N” value was found to be 1.

These data come from paper PMC4338332 (RNA, 2015).
